Earlier results as cited in article PMC8027070.
Like-named read-outs stand apart in the source and are kept apart here.

Legend:
PACAP (Homo sapiens) [1] = target: PACAP (Homo sapiens) (UniProt P18509)
VIP (Homo sapiens) [2] = target: VIP (Homo sapiens) (UniProt P01282)
PACAP (Homo sapiens) [3] = target: PACAP (Homo sapiens) (UniProt P18509); remark: listed apart in the source
VIP (Homo sapiens) [4] = target: VIP (Homo sapiens) (UniProt P01282); remark: listed apart in the source
VIP (Homo sapiens) [5] = target: VIP (Homo sapiens) (UniProt P01282); remark: listed apart in the source
PACAP (Homo sapiens) [6] = target: PACAP (Homo sapiens) (UniProt P18509); remark: listed apart in the source

Sequence of UniProt P01282 (P01282 125-152): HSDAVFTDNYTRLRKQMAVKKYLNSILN
Sequence of UniProt P18509 (P18509 82-129): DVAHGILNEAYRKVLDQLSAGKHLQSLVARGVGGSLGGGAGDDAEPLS

Substance: PAC1 receptor (from UniProt P41586)
- Kd (PACAP (Homo sapiens) [1]): 0.5 nM
- Kd (VIP (Homo sapiens) [2]): > 500 nM

Substance: VPAC1 receptor (from UniProt P32241)
- Kd (PACAP (Homo sapiens) [3]): 1 nM
- Kd (VIP (Homo sapiens) [4]): 1 nM

Substance: VPAC2 receptor (from UniProt P41587)
- Kd (VIP (Homo sapiens) [5]): 1 nM
- Kd (PACAP (Homo sapiens) [6]): 1 nM
